The subject of this assay is Primary human keratinocytes. The assay can be described thus: Keratinocyte migration, wound scratch assay. Type of assay: cell-based. The conditions noted are these: 20 μmol/L LiCl or 25 ng/ml of EGF, 24 and 48 hours. The protocol:
Primary human keratinocytes were grown to 80% confluency. Twenty-four hours before the experiment cells were transferred to basal KBM medium (Life Technologies, Inc., Grand Island, N.Y.). Before the scratch, cells were treated with 8 μg/ml mitomycin C (ICN, Irvine, Calif.) for 1 hour and washed with basal media. Scratches were performed as previously described (Lee, et al., J Mol. Biol., 345:1083-1097 (2005)). Cells were incubated with 20 μmol/L LiCl or 25 ng/ml of EGF for 24 and 48 hours, rephotographed, and cell migration was quantified as previously described (Lee, et al., J. Mol. Biol., 345:1083-1097 (2005); Zavadil. et al., EMBO J., 23:1155-1165 (2004)). Thirty measurements were taken for each experimental condition and distance coverage by cells moving into the scratch wound area was quantified. Three images were analyzed per condition, per time point, and averages and standard deviations were calculated.

B1: EGF: epidermal growth factor, promotes keratinocyte migration (protein, UniProt P01133 23-1207, looked up)
Pro-epidermal growth factor: PQHWSCPEGTLAGNGNSTCVGPAPFLIFSHGNSIFRIDTEGTNYEQLVVDAGVSVIMDFHYNEKRIYWVDLERQLLQRVFLNGSRQERVCNIEKNVSGMAINWINEEVIWSNQQEGIITVTDMKGNNSHILLSALKYPANVAVDPVERFIFWSSEVAGSLYRADLDGVGVKALLETSEKITAVSLDVLDKRLFWIQYNREGSNSLICSCDYDGGSVHISKHPTQHNLFAMSLFGDRIFYSTWKMKTIWIANKHTGKDMVRINLHSSFVPLGELKVVHPLAQPKAEDDTWEPEQKLCKLRKGNCSSTVCGQDLQSHLCMCAEGYALSRDRKYCEDVNECAFWNHGCTLGCKNTPGSYYCTCPVGFVLLPDGKRCHQLVSCPRNVSECSHDCVLTSEGPLCFCPEGSVLERDGKTCSGCSSPDNGGCSQLCVPLSPVSWECDCFPGYDLQLDEKSCAASGPQPFLLFANSQDIRHMHFDGTDYGTLLSQQMGMVYALDHDPVENKIYFAHTALKWIERANMDGSQRERLIEEGVDVPEGLAVDWIGRRFYWTDRGKSLIGRSDLNGKRSKIITKENISQPRGIAVHPMAKRLFWTDTGINPRIESSSLQGLGRLVIASSDLIWPSGITIDFLTDKLYWCDAKQSVIEMANLDGSKRRRLTQNDVGHPFAVAVFEDYVWFSDWAMPSVMRVNKRTGKDRVRLQGSMLKPSSLVVVHPLAKPGADPCLYQNGGCEHICKKRLGTAWCSCREGFMKASDGKTCLALDGHQLLAGGEVDLKNQVTPLDILSKTRVSEDNITESQHMLVAEIMVSDQDDCAPVGCSMYARCISEGEDATCQCLKGFAGDGKLCSDIDECEMGVPVCPPASSKCINTEGGYVCRCSEGYQGDGIHCLDIDECQLGEHSCGENASCTNTEGGYTCMCAGRLSEPGLICPDSTPPPHLREDDHHYSVRNSDSECPLSHDGYCLHDGVCMYIEALDKYACNCVVGYIGERCQYRDLKWWELRHAGHGQQQKVIVVAVCVVVLVMLLLLSLWGAHYYRTQKLLSKNPKNPYEESSRDVRSRRPADTEDGMSSCPQPWFVVIKEHQDLKNGGQPVAGEDGQAADGSMQPTSWRQEPQLCGMGTEQGCWIPVSSDKGSCPQVMERSFHMPSYGTQTLEGGVEKPHSLLSANPLWQQRALDPPHQMELTQ
modifications: Pro-epidermal growth factor
notes: epidermal growth factor, promotes keratinocyte migration
B1: the keratinocyte migration result was “promoted”.

Values taken from patent US8889615B2, “Methods for promoting epithelialization and healing of chronic wounds” (New York University, priority 2009, dated 2014).
